T1: Mcm7 (Saccharomyces cerevisiae, UniProt P38132 1-845)
T1 sequence: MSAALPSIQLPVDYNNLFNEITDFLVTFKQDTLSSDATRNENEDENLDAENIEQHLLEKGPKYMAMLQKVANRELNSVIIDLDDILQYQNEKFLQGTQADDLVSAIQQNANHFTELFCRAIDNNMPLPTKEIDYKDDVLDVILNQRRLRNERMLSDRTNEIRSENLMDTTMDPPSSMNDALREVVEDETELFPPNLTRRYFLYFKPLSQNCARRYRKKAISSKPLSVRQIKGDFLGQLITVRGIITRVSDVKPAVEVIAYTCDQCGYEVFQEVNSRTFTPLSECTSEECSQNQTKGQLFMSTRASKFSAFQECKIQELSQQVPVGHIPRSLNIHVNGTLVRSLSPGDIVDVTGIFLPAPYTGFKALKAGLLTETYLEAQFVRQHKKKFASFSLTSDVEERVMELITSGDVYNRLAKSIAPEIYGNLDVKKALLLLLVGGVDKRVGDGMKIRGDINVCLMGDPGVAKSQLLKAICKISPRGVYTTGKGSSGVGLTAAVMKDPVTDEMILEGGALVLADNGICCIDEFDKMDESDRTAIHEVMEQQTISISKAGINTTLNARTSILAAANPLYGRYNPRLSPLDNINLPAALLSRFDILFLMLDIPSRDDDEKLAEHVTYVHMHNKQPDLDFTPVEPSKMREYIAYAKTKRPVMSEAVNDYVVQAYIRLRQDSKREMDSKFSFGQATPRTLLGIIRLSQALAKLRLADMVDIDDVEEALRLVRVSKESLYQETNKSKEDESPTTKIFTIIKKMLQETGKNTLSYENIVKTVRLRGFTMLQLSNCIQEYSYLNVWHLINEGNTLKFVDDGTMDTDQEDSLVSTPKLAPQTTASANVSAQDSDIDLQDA

T2: Mcm4 (Saccharomyces cerevisiae, UniProt P30665 1-933)
T2 sequence: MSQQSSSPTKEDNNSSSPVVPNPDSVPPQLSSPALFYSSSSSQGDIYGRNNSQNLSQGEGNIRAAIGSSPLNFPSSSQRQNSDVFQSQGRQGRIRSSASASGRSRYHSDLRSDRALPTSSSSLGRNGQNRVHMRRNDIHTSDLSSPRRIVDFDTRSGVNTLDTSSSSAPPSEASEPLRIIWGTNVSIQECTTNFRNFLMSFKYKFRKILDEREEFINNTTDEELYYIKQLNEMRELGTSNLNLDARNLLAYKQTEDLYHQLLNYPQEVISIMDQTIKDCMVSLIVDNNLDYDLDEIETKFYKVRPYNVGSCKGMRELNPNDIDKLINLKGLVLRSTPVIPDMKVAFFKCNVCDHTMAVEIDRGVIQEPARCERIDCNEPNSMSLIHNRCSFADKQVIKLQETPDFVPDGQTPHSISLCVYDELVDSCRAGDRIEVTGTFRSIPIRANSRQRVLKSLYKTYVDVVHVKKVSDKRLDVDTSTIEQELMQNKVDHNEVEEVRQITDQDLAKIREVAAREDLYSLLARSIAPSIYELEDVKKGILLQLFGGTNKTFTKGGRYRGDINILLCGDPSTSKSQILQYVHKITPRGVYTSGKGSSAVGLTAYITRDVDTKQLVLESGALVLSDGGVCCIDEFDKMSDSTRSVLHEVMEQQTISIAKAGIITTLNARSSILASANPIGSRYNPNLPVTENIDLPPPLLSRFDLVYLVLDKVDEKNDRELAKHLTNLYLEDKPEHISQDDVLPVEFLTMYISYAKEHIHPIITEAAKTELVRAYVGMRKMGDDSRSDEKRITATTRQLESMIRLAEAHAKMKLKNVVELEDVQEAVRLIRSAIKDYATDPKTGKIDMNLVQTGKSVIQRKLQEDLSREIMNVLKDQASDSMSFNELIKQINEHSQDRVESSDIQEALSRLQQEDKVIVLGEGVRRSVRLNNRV

B1: Mcm5 (natural protein)
chain: MSFDRPEIYSAPVLQGESPNDDDNTEIIKSFKNFILEFRLDSQFIYRDQLRNNILVKNYSLTVNMEHLIGYNEDIYKKLSDEPSDIIPLFETAITQVAKRISILSRAQSANNNDKDPENTSMDTDSLLLNSLPTFQLILNSNANQIPLRDLDSEHVSKIVRLSGIIISTSVLSSRATYLSIMCRNCRHTTSITINNFNSITGNTVSLPRSCLSTIESESSMANESNIGDESTKKNCGPDPYIIIHESSKFIDQQFLKLQEIPELVPVGEMPRNLTMTCDRYLTNKVIPGTRVTIVGIYSIYNSKNGAGSGRSGGGNGGSGVAIRTPYIKILGIQSDVETSSIWNSVTMFTEEEEEEFLQLSRNPKLYEILTNSIAPSIFGNEDIKKAIVCLLMGGSKKILPDGMRLRGDINVLLLGDPGTAKSQLLKFVEKVSPIAVYTSGKGSSAAGLTASVQRDPMTREFYLEGGAMVLADGGVVCIDEFDKMRDEDRVAIHEAMEQQTISIAKAGITTVLNSRTSVLAAANPIYGRYDDLKSPGDNIDFQTTILSRFDMIFIVKDDHNEERDISIANHVINIHTGNANAMQNQQEENGSEISIEKMKRYITYCRLKCAPRLSPQAAEKLSSNFVTIRKQLLINELESTERSSIPITIRQLEAIIRITESLAKLELSPIAQERHVDEAIRLFQASTMDAASQDPIGGLNQASGTSLSEIRRFEQELKRRLPIGWSTSYQTLRREFVDTHRFSQLALDKALYALEKHETIQLRHQGQNIYRSGV
B2: Mcm3 (natural protein)
chain: MEGSTGFDGDATTFFAPDAVFGDRVRRFQEFLDTFTSYRDSVRSIQVYNSNNAANYNDDQDDADERDLLGDDDGDDLEKEKKAASSTSLNILPHRIIISLDDLREFDRSFWSGILVEPAYFIPPAEKALTDLADSMDDVPHPNASAVSSRHPWKLSFKGSFGAHALSPRTLTAQHLNKLVSVEGIVTKTSLVRPKLIRSVHYAAKTGRFHYRDYTDATTTLTTRIPTPAIYPTEDTEGNKLTTEYGYSTFIDHQRITVQEMPEMAPAGQLPRSIDVILDDDLVDKTKPGDRVNVVGVFKSLGAGGMNQSNSNTLIGFKTLILGNTVYPLHARSTGVAARQMLTDFDIRNINKLSKKKDIFDILSQSLAPSIYGHDHIKKAILLMLMGGVEKNLENGSHLRGDINILMVGDPSTAKSQLLRFVLNTASLAIATTGRGSSGVGLTAAVTTDRETGERRLEAGAMVLADRGVVCIDEFDKMTDVDRVAIHEVMEQQTVTIAKAGIHTTLNARCSVIAAANPVFGQYDVNRDPHQNIALPDSLLSRFDLLFVVTDDINEIRDRSISEHVLRTHRYLPPGYLEGEPVRERLNLSLAVGEDADINPEEHSNSGAGVENEGEDDEDHVFEKFNPLLQAGAKLAKNKGNYNGTEIPKLVTIPFLRKYVQYAKERVIPQLTQEAINVIVKNYTDLRNDDNTKKSPITARTLETLIRLATAHAKVRLSKTVNKVDAKVAANLLRFALLGEDIGNDIDEEESEYEEALSKRSPQKSPKKRQRVRQPASNSGSPIKSTPRRSTASSVNATPSSARRILRFQDDEQNAGEDDNDIMSPLPADEEAELQRRLQLGLRVSPRRREHLHAPEEGSSGPLTEVGTPRLPNVSSAGQDDEQQQSVISFDNVEPGTISTGRLSLISGIIARLMQTEIFEEESYPVASLFERINEELPEEEKFSAQEYLAGLKIMSDRNNLMVADDKVWRV
B3: Mcm2 (natural protein)
chain: MSDNRRRRREEDDSDSENELPPSSPQQHFRGGMNPVSSPIGSPDMINPEGDDNEVDDVPDIDEVEEQMNEVDLMDDNMYEDYAADHNRDRYDPDQVDDREQQELSLSERRRIDAQLNERDRLLRNVAYIDDEDEEQEGAAQLDEMGLPVQRRRRRRQYEDLENSDDDLLSDMDIDPLREELTLESLSNVKANSYSEWITQPNVSRTIARELKSFLLEYTDETGRSVYGARIRTLGEMNSESLEVNYRHLAESKAILALFLAKCPEEMLKIFDLVAMEATELHYPDYARIHSEIHVRISDFPTIYSLRELRESNLSSLVRVTGVVTRRTGVFPQLKYVKFNCLKCGSILGPFFQDSNEEIRISFCTNCKSKGPFRVNGEKTVYRNYQRVTLQEAPGTVPPGRLPRHREVILLADLVDVSKPGEEVEVTGIYKNNYDGNLNAKNGFPVFATIIEANSIKRREGNTANEGEEGLDVFSWTEEEEREFRKISRDRGIIDKIISSMAPSIYGHRDIKTAVACSLFGGVPKNVNGKHSIRGDINVLLLGDPGTAKSQILKYVEKTAHRAVFATGQGASAVGLTASVRKDPITKEWTLEGGALVLADKGVCLIDEFDKMNDQDRTSIHEAMEQQSISISKAGIVTTLQARCSIIAAANPNGGRYNSTLPLAQNVSLTEPILSRFDILCVVRDLVDEEADERLATFVVDSHVRSHPENDEDREGEELKNNGESAIEQGEDEINEQLNARQRRLQRQRKKEEEISPIPQELLMKYIHYARTKIYPKLHQMDMDKVSRVYADLRRESISTGSFPITVRHLESILRIAESFAKMRLSEFVSSYDLDRAIKVVVDSFVDAQKVSVRRQLRRSFAIYTLGH

Assays:
Test in all cases: SEC + co-IP
Mcm6 = Mcm6 (Saccharomyces cerevisiae, UniProt P53091 1-1017)
Mcm7 = target: T1, Mcm7
Mcm4 = target: T2, Mcm4
Mcm3 = target: B2

Chain of Mcm6 (P53091 whole entry): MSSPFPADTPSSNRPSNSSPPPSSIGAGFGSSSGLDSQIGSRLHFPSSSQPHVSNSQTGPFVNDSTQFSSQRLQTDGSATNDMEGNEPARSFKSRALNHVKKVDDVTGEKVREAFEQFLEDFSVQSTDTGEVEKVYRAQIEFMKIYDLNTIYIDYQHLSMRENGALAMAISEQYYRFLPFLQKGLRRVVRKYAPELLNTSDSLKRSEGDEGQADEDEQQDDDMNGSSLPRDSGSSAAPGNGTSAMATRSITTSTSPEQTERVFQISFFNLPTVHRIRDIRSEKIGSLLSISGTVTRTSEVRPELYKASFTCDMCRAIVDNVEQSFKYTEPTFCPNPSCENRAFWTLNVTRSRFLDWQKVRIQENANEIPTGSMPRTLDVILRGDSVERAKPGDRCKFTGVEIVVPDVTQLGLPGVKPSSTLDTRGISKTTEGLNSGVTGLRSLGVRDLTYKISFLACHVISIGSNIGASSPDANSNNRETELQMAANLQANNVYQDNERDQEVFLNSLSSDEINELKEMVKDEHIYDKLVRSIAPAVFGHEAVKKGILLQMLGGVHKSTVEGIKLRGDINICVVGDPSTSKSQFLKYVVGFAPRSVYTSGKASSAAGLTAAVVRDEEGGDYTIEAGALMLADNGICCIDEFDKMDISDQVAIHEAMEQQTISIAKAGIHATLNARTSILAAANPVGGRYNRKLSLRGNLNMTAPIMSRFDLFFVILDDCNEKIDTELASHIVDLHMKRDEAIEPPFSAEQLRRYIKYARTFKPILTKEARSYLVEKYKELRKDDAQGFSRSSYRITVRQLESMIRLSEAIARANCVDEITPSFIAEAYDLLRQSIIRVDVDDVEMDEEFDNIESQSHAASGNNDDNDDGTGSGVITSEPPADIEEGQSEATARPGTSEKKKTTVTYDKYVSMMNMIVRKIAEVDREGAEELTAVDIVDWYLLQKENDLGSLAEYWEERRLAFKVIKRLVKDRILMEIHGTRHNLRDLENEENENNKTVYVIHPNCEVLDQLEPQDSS

Binder	binding result (Mcm6)	binding result (Mcm7)	binding result (Mcm4)	binding result (Mcm3)
B1	binds	binds		
B2	binds			
B3			binds	binds

From paper PMC2952866 (Nucleic Acids Research, 2010)
